We go through five compounds from PMC8307404, “Crystal Structure-Guided Design of Bisubstrate Inhibitors and Photoluminescent Probes for Protein Kinases of the PIM Family” (Molecules, 2021).

Common to all, as to test: Kinase profiling (radiometric filter-binding)
Holding throughout (assay type): biochemical

The target in one data set is PIM2 (Homo sapiens, UniProt Q9P1W9). The conditions noted are these: PIM2, 1 µM inhibitor; read-out: Residual activity, %. The essentials: (§1)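 Activity remaining (% of control without inhibitor) at 1 µM final compound; human kinases, ATP ≤ KM, radiometric filter binding.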
Chain of PIM2 (Q9P1W9 whole entry): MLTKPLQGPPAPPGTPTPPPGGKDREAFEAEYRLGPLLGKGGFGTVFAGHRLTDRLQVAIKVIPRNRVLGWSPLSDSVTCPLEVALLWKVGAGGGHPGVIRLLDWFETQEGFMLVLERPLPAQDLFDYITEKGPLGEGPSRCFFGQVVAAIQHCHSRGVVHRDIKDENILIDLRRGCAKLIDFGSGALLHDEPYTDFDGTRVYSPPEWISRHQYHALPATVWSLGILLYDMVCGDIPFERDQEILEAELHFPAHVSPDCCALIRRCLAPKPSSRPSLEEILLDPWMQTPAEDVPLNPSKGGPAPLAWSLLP
The target of the next data set is T1, EPH-B1 (Homo sapiens, UniProt P54762).
T1 sequence (P54762 18-984): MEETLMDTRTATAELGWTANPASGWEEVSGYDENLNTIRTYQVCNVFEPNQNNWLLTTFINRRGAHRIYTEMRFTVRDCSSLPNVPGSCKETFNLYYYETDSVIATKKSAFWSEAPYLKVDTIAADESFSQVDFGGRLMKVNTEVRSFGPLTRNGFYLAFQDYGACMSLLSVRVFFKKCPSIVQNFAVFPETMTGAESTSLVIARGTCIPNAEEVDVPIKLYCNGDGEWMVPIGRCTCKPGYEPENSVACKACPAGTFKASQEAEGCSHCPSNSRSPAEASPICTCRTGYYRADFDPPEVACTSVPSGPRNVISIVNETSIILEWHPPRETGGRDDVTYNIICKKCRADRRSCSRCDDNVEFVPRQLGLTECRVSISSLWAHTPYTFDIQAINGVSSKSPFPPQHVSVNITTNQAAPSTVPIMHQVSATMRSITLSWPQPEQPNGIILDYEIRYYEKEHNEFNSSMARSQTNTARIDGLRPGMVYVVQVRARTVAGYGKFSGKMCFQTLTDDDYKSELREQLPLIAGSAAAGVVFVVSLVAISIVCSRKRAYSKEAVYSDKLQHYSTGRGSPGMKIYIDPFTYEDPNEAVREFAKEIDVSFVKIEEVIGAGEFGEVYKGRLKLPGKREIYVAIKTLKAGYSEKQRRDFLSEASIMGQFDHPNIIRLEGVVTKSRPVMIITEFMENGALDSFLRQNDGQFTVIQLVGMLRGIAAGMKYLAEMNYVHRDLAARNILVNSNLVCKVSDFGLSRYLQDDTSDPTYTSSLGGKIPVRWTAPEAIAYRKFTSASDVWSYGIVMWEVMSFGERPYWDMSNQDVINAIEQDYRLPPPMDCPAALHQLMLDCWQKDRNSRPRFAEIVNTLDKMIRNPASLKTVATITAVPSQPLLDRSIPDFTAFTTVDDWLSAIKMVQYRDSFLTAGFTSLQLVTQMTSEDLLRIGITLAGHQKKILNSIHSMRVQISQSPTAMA
The note with it: EPH-B1, 1 µM inhibitor; read-out: Residual activity, %. The essentials: as §1

The target of a further data set is CSK (Homo sapiens, UniProt P41240). The note with it: 1 µM inhibitor, read-out: Residual activity, %. The procedure, abridged: as §1
Chain of CSK (P41240 whole entry): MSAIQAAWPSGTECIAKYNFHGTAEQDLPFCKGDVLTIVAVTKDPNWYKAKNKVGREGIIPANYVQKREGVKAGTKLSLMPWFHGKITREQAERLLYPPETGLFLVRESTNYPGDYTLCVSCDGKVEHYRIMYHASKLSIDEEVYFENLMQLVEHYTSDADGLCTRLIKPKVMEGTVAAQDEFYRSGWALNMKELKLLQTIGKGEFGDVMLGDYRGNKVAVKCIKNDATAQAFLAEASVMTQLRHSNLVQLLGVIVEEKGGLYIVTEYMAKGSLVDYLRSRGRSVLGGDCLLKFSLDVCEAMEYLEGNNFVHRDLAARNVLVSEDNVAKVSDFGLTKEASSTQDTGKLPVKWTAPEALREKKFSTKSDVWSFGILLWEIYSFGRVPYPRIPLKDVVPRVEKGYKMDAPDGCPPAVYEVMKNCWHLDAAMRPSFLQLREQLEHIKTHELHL
The next data set has as its target JAK2 (Homo sapiens, UniProt O60674). The note with it: JAK2, 1 µM inhibitor; read-out: Residual activity, %. The essentials:
as §1

The target in a further data set is CK2 (Homo sapiens, UniProt P68400). The note with it: CK2, 1 µM inhibitor; read-out: Residual activity, %. The essentials:
as §1

A further data set addresses PIM3 (Homo sapiens, UniProt Q86V86). The note with it: PIM3, 1 µM inhibitor; read-out: Residual activity, %. The essentials: as §1
The target in the next data set is GSK3 (Homo sapiens, UniProt P49841). The conditions noted are these: GSK3 (Greek letter lost), 1 µM inhibitor; read-out: Residual activity, %. The essentials:
as §1

Another data set deals with T2, GCK (Homo sapiens, UniProt Q12851).
T2 sequence (Q12851 1-820): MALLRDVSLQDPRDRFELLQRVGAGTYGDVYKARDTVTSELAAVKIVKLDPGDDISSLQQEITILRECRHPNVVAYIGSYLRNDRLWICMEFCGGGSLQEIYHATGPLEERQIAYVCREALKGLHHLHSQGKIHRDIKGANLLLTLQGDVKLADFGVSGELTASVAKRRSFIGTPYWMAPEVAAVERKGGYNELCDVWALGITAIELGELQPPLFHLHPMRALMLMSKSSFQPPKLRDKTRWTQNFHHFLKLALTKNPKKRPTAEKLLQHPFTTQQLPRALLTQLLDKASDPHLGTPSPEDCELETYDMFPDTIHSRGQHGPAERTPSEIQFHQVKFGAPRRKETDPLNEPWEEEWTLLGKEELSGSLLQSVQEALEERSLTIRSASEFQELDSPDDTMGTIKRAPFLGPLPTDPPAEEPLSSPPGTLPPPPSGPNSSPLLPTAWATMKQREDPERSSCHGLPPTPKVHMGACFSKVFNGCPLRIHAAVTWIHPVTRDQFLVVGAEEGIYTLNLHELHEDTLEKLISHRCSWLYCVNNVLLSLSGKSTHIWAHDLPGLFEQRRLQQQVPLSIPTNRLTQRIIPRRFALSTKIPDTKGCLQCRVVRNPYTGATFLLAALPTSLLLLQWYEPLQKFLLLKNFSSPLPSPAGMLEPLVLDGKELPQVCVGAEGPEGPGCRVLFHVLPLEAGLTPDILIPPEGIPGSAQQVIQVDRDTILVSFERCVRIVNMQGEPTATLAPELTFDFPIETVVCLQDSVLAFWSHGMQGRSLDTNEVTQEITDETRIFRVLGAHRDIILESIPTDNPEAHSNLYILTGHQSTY
The note with it: 1 µM inhibitor, read-out: Residual activity, %. The procedure, abridged:
as §1

Square brackets hold non-standard residues; d marks the D form. Peptide text beside a SMILES is read from it. * marks the point of attachment. X3 = O=C(CCCCCNCc1nc2c(sc3cc(Br)cnc32)c(=O)[nH]1)*

Chain of GSK3 (P49841 whole entry): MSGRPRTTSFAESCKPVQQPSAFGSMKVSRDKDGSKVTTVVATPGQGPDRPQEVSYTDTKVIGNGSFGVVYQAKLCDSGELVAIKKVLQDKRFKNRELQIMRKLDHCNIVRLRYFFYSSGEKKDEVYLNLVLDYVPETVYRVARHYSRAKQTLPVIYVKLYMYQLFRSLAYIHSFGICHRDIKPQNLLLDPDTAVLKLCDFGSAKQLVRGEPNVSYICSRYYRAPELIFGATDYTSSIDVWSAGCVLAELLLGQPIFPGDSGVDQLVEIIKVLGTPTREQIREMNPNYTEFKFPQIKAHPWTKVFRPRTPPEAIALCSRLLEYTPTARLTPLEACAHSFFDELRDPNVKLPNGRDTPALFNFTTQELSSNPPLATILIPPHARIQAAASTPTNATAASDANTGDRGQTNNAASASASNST
Chain of JAK2 (O60674 whole entry): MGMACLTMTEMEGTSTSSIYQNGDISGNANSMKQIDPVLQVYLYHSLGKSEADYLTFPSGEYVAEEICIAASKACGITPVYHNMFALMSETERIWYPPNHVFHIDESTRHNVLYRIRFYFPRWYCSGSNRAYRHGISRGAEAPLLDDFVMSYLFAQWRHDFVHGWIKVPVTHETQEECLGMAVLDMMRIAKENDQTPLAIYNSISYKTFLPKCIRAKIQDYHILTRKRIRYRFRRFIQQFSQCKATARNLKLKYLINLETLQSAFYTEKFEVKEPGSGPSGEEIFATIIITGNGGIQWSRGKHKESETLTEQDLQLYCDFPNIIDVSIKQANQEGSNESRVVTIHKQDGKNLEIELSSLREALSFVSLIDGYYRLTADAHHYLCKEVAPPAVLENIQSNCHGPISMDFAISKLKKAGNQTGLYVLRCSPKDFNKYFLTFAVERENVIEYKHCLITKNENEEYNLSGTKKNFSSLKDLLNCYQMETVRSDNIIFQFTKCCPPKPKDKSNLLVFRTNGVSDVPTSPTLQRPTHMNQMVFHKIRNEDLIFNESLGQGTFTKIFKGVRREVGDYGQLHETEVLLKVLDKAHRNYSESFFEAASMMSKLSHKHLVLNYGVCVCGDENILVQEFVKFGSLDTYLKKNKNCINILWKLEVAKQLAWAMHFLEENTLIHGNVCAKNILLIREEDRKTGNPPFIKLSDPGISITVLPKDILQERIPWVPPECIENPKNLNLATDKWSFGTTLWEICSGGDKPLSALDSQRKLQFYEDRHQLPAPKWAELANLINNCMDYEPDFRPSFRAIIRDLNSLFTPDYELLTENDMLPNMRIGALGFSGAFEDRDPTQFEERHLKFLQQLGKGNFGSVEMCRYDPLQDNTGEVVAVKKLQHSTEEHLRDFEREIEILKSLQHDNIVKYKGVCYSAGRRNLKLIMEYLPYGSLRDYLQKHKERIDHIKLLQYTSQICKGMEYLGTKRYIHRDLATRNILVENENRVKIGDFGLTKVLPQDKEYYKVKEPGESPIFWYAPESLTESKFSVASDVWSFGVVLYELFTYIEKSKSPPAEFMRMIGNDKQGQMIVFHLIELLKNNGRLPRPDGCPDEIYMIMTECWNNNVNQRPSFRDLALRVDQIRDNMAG
Chain of CK2 (P68400 whole entry): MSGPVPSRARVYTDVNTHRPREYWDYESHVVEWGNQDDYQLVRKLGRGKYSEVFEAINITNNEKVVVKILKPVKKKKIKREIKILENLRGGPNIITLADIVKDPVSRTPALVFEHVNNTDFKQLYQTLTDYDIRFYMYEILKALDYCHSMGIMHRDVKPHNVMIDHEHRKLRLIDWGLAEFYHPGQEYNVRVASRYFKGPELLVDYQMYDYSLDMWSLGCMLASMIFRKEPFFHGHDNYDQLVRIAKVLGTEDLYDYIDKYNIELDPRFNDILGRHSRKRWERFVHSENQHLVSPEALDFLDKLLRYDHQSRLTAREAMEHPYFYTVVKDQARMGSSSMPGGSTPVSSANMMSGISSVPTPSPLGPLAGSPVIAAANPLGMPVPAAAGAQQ

Regarding `N=C(N)NCCC[C@@H](NC(=O)CCCCCNC(=O)Cn1cnc2c(I)c(I)c(I)c(I)c21)C(=O)N[C@H](CCCNC(=N)N)C(=O)N[C@H](CCCNC(=N)N)C(=O)N[C@H](CCCNC(=N)N)C(=O)N[C@H](CCCNC(=N)N)C(=O)N[C@H](CCCNC(=N)N)C(=O)N[C@H](CCCCN)C(N)=O` [ARC-3125, TIBI-CH2-C(=O)-Ahx-(D-Arg)6-D-Lys-NH2], the remaining activity at 1 µM is 0% in the data set with PIM2; 106 ± 12% with EPH-B1; 85 ± 2% with CSK; 115 ± 5% with JAK2; 30 ± 2% with CK2; 7 ± 1% with PIM3. Moreover, the remaining activity at 1 µM with GSK3 worked out at 140 ± 13%; with GCK, 56 ± 4%.
Take `N=C(N)NCCC[C@@H](NC(=O)CCCCCNCc1nc2c(sc3cc(Br)cnc32)c(=O)[nH]1)C(=O)N[C@H](CCCNC(=N)N)C(=O)N[C@H](CCCNC(=N)N)C(=O)N[C@H](CCCNC(=N)N)C(=O)N[C@H](CCCNC(=N)N)C(=O)N[C@H](CCCNC(=N)N)C(=O)N[C@H](CCCCN)C(N)=O` [ARC-3126, BPTP-Ahx-(D-Arg)6-D-Lys-NH2] (X3-[dR][dR][dR][dR][dR][dR][dK]-NH2): the remaining activity at 1 µM amounted to 10% with PIM2; 96 ± 6% with EPH-B1; 91 ± 18% with CSK; 116 ± 9% with JAK2; 8 ± 3% in the data set with CK2; 13% with PIM3. For the same compound, the remaining activity at 1 µM with GSK3 amounted to 80%; with GCK, 88 ± 14%.
On to `N=C(N)NCCC[C@@H](NC(=O)CNC(=O)[C@@H](CCCNC(=N)N)NC(=O)[C@@H](CCCNC(=N)N)NC(=O)CCCCCCCNCc1nc2c(sc3cc(Br)cnc32)c(=O)[nH]1)C(=O)N[C@H](CCCCN)C(N)=O` [Compound 1, BPTP-Aoc-(D-Arg)2-Gly-D-Arg-D-Lys-NH2], for which the remaining activity at 1 µM in the data set with PIM2 amounted to 72%; with EPH-B1 it was 103 ± 9%; with CSK, 141 ± 10%; with JAK2, 93 ± 14%; with CK2, 77 ± 9%; with PIM3 it was 17%. For the same compound, the remaining activity at 1 µM in the data set with GSK3 turned out to be 110 ± 12%; in the data set with GCK, 112%.
Consider `N=C(N)NCCC[C@@H](NC(=O)CNC(=O)[C@@H](CCCNC(=N)N)NC(=O)[C@@H](CCCNC(=N)N)NC(=O)CCCCCCCNCc1nc2c(sc3ccc(Br)cc32)c(=O)[nH]1)C(=O)N[C@H](CCCCN)C(N)=O` [Compound 2, BBTP-Aoc-(D-Arg)2-Gly-D-Arg-D-Lys-NH2], for which the remaining activity at 1 µM with PIM2 stood at 7 ± 1%; in the data set with EPH-B1, 99 ± 15%; with CSK, 112 ± 20%; in the data set with JAK2 it was 82 ± 16%; with CK2 it was 63 ± 12%; with PIM3 it was 4 ± 1%. The remaining activity at 1 µM turned out to be 75 ± 8% in the data set with GSK3 and 114 ± 2% with GCK.
Consider `N=C(N)NCCC[C@@H](NC(=O)CNC(=O)[C@@H](CCCNC(=N)N)NC(=O)[C@@H](CCCNC(=N)N)NC(=O)Cn1cc(CNCc2nc3c(sc4ccc(Br)cc43)c(=O)[nH]2)nn1)C(=O)N[C@H](CCCCN)C(N)=O` [Compound 3, BBTP-Amt-(D-Arg)2-Gly-D-Arg-D-Lys-NH2], for which the remaining activity at 1 µM with PIM2 came out at 15 ± 1%; with EPH-B1 it was 106 ± 11%; with CSK, 116 ± 5%; with JAK2, 72 ± 21%; in the data set with CK2 it was 57 ± 7%; with PIM3 it was 6%. Also, the values for the remaining activity at 1 µM with GSK3 and with GCK were 64 ± 8% and 97 ± 7%, respectively.
